Source: article PMC6946597
Read-outs that look alike come from different tables or passages of the source.

Experiments:
[1] = target: human COA6 isoform 3 (human); assay: SEC
[2] = target: human COA6 isoform 3 (human); assay: SEC; remark: listed apart in the source

stoichiometry N [1]: 2
stoichiometry N [2]: 2
Substance: human COA6 isoform 3 (natural protein)
